Results taken from the supplement of paper PMC9170038.

System: MS2 coat protein
Experiment: apparent KD of MS2 coat protein; higher = weaker reporter binding
Details: Eterna round: R107
Method in brief: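 Apparent KD was obtained for each design as the median of normalised binding-curve fits over its clusters. RNA switches transcribed on-chip from Illumina sequencing clusters were titrated with SNAP-549-labelled MS2 coat protein (twofold steps, 0.7 or 1.5 nM to 3 µM) in 100 mM Tris-HCl pH 7.5, 80 mM KCl, 4 mM MgCl2, without or with constant ligand.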

[1] = input ligand: theophylline 20 uM
[2] = input ligand: theophylline 2 mM
[3] = input ligand: tryptophan 2.4 mM

| Sequence | apparent KD of MS2 coat protein (input ligand: arginine 13.2 mM) | apparent KD of MS2 coat protein (input ligand: none) | apparent KD of MS2 coat protein [1] | apparent KD of MS2 coat protein [2] | apparent KD of MS2 coat protein [3] |
| --- | --- | --- | --- | --- | --- |
| AGCCGGAUUACGGCCGCCACUGUAGACGUGACGAAAGUCGCGUCAACAUGAGGAUCACCCAUGUACAGGACCGGGUGGUCCGGCG [Omei Trp B SS A v1] | 0.015 µM | 0.0137 µM | 0.0222 µM | 0.0178 µM | 0.00602 µM |
| AGCCGGAUUACGGCCGCCACUGUAGACGUGACGAAAGUCGCGUCAACAUGAGGAUCACCCAUGUACAGGACCGGGUGGUCGGGCG [Omei Tryp B SS A v5] | 0.0741 µM |  | 0.247 µM | 0.24 µM |  |
| AGCCGUACGUACGGAAACGUACGUACGGCACGAGGACCGGUACGGCCGCCACUCGCCCACAUGAGGAUCACCCAUGUAGUGGGUG [The One Line] | 0.0234 µM | 0.0437 µM | 0.0582 µM | 0.0534 µM | 0.103 µM |
| AGCCUCAUACAUGAGGAACACCCAUGUGAUACCAGUCAGGAAACUGACCCUUGGCAGCGCAUGAGGAUCACCCAUGCGCGAGGCA [Omei Theo A Exc A v3] | 0.0204 µM | 0.063 µM | 0.0782 µM | 0.237 µM | 0.0477 µM |
| AGCGACAUGCAUGAUACCAGCUACAUGAGGAUCACCCAUGUACGUCAGUAAUGACUGUGUAGCCCUUGGCAGCAUAGAGCAUGUA [Exclusion - Theophylline B (Freestyle 14)] | 0.0177 µM |  | 0.028 µM |  | 0.0184 µM |
| AGCGACAUGCGUGAUACCAGCUACAUGAGGAUCACCCAUGUACGUAGGAAACUACUGUGUAGCCCUUGGCAGCAUAGUGCAUGUC [Exclusion - Theophylline B (Freestyle 21)] | 0.0146 µM |  | 0.02 µM |  | 0.0135 µM |
| AGCGACAUGCGUGAUACCAGCUACAUGAGGAUCACCCAUGUCAGUAGGAAACUACUGUGUAGCCCUUGGCAGCACAGUGCAUGUC [Exclusion - Theophylline B (Freestyle 26)] | 0.0123 µM | 0.0164 µM | 0.0319 µM | 0.0302 µM | 0.0177 µM |
| AGCGCAGGUCCUGAUACCAGAGACAUGAGGAUCACCCAUGUCCGGUGGUCCUGCCACAGGCUCCCUUGGCAGCAGGGCUUGUGCU [Exclusion Theophylline B GF9] | 0.0314 µM | 0.0287 µM | 0.0408 µM | 0.0605 µM | 0.0291 µM |
| AGCGUGCAUCGGAAAACGAUGUACGCAAAUCGAGGACCGGUACGGCCGCCACUCGUCCUCAACAUGAGGAUCACCCAUGUAAUAA [Mat - Exclusion - Trytophan A - D10] | 0.022 µM |  | 0.0248 µM | 0.024 µM |  |
| AGCUCGCAAUCCUCAGCGUCAAAGACGCGUCGAGGACCGGUACGGCCGCCACUCGACAAGAGGAUCACCCUUGUCUAAGCGAGCA [TrypAX 5 #SwitchBubble #AlternativeMS2 #MS2Late #CuTurnoff] | 0.0785 µM |  | 0.355 µM | 0.588 µM | 0.114 µM |
| AGCUCGCAUCCUCAAGCGUCAAAGACGCGUCGAGGACCGGUACGGCCGCCACUCGACCUGAGGAACACCCAGGUCCUCGCGAGCA [TrypAX 7 #SwitchBubble #AlternativeMS2 #MS2Late #CuTurnoff] | 0.0207 µM | 0.0261 µM | 0.0402 µM | 0.0349 µM | 0.236 µM |
| AGCUCGCGAAAGCGAGCAACAUGAUCCGAAGGAGCGGGCGAAAGCCCAGGUAGGUCGCGGACAUGAGGAUCACCCAUGUCUCCUU [MAT - Exclusion Arginine A - Mod of Eli - D13] | 0.041 µM | 0.0709 µM | 0.0884 µM | 0.0948 µM | 0.077 µM |
| AGGAACAUGAGGAUCACCCAUGUAAGCGAUACCAGUGAUAUGUUGCGCCCUUGGCAGCGCAAGUGUGUGUGAAAGAUGUAAGAUU [Eclusion - Theophylline A / A] | 0.0146 µM |  | 0.0293 µM |  | 0.0167 µM |
| AGGACGGUCGGAAGGAGCGGUACAUGAGGAUCACCCAUGUACUCCUGGGCAUCCGUAGUGUGCCAGGUAGGUCGCCGAUUGCGGG [XArg-B8] | 0.0121 µM | 0.0121 µM | 0.0198 µM | 0.0215 µM | 0.0162 µM |
| AGGACGGUCGGAAGGAGCGGUACAUGAGGAUCACCCAUGUAUUCCUGGGCAUCCGUAGUGUGCCAGGUAGGUCGCCGAUUGCGGG [XArg-B7] | 0.0576 µM | 0.0327 µM | 0.109 µM | 0.103 µM | 0.0648 µM |
| AGGUACAGCAGGUGAUUCUGGCUGUACCAACGAGGACCGGUACGGCCGCCACUCGAAUAAACAUGAGGAUCACCCAUGUACAAAU [T''-M-T'-T-MS2 - Design 7] | 0.0203 µM |  | 0.0413 µM | 0.0319 µM |  |
| AGUAAUAAUAUAAAUAAUAUUAGGUCAUGGCGAGGACCGGUACGGCCGCCACUCGGUUACAUGAGGAUCACCCAUGUCCCGCUUA [Exclusion - Tryptophan A] | 0.0266 µM |  | 0.035 µM | 0.0312 µM |  |
| AGUACACGAACGGAUACCAGCCGGACAUGAGGAUCACCCAUGUCCUACCUCUGUUCGGUUGGCCCUUGGCAGCCGUUCGUGUACA [Omei Theo B SS A v8] | 0.122 µM |  | 0.59 µM |  | 0.208 µM |
| AGUACAUGAGGAUCACCCAUGUAUCGGUACCGAGGACCGGUACGGCCGCCACUCGCAGGACAUGAGGAUCACCCAUGUGCCGCCG [SSTA DOUBLE!!! :-D #9] | 0.0139 µM |  | 0.0226 µM | 0.0224 µM |  |
| AGUACUCGAACGGAUACCAGCCGGACAUGAGGAUCACCCAUGUCCUACCUAUGUUCGGUUGGCCCUUGGCAGCCGUUCGUGUACA [Omei Theo B SS A v6] | 0.171 µM |  | 0.707 µM |  | 0.43 µM |
| AGUAGUUGACAAAAGUCAGCUACAAUUGAAGGAGCGGGUGGGUGCCCAGGUAGGUCGCAAUAACAUGAGGAUCACCCAUGUAUAA [ArgAS 2 #BothOrNeither #OpenEnded] | 0.02 µM | 0.021 µM | 0.0229 µM | 0.0272 µM | 0.0179 µM |
| AGUAUCAGUGGAAGGAGCGUCGCGACUGCCACAUGAGGAUCACCCAUGUCGCCUUGAGCGCGACAGGUAGGUCGCCACGGUAGGC [SS-ArgB2] | 0.0291 µM | 0.301 µM | 0.213 µM | 0.499 µM | 0.289 µM |
| AGUAUUGGAAACAGUACUAGUGAUCCGGUCCGAGGACCGGUACGGCCGCCACUCGAAUUAAAUAAACAUGAGGAUCACCCAUGUA [Ex Tryptophan A 15] | 0.0181 µM |  | 0.0187 µM | 0.0206 µM |  |
| AGUCUUAUAGGAAGGAGCGCAUACUUCACAUGAGGAUCACCCAUGUCAAGACGUGAGUCAGUGCAGGUAGGUCGCCUAACUAAGA [Same State - Arginine B (Freestyle 13)] | 0.0272 µM | 0.0292 µM | 0.0297 µM | 0.0321 µM | 0.0277 µM |
| AGUCUUGAACGAAGGAGCGACGUACAUGAGGAUCACCCAUGUGUGGAGCGAAAGCUCCAACGUCAGGUAGGUCGCGUUCGAGACA [Omei Arginine B SS A v2] | 0.0149 µM | 0.0128 µM | 0.018 µM | 0.0149 µM | 0.0139 µM |
| AGUGGUGCAACUGAUACCAGAUUUAUACGAGACAUGAGGAUCACCCAUGUCGAAAGACAAAUCCCUUGGCAGCAGACACGAUCCC [theeternabot_sameState_MS2_Theo_B_25] | 0.00988 µM |  | 0.0104 µM |  | 0.00965 µM |
| AGUGUAUCCAUCGAUACCAGCCACCACCGAUAGACCACAUGAGGAUCACCCAUGUUGGGUGGCCCUUGGCAGCGGUGGCUGUGUA [Same State - Theophylline B Attempt #2 (HarryS)] | 0.0575 µM |  | 0.512 µM |  | 0.546 µM |
| AGUGUUAUAACUGAUACCAGACUCUCAUGUUUACAUGAGGAUCACCCAUGUUAUUUCUUUGUCCCUUGGCAGCAGAAUUAACACA [JR_SSTheophyB_Sub010] | 0.152 µM |  | 0.175 µM |  | 0.215 µM |
